Tests used:
MinD (E. coli) [1] = biological target: MinD (E. coli) (UniProt P0AEZ3)
MinD (E. coli) [2] = biological target: MinD (E. coli) (UniProt P0AEZ3); remark: listed apart in the source
FL-MinD (E. coli) = FL-MinD (E. coli) (UniProt P0AEZ3)
Chain of FL-MinD (E. coli) (P0AEZ3 whole entry): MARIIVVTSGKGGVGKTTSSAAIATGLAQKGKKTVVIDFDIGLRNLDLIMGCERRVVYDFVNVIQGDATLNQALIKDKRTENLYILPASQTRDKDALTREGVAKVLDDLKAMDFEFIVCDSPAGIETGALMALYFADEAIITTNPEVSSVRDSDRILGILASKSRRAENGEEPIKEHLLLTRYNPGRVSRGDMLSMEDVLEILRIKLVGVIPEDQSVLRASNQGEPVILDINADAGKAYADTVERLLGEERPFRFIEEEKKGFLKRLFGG

Chain of ClpXP (P0A6H1 whole entry): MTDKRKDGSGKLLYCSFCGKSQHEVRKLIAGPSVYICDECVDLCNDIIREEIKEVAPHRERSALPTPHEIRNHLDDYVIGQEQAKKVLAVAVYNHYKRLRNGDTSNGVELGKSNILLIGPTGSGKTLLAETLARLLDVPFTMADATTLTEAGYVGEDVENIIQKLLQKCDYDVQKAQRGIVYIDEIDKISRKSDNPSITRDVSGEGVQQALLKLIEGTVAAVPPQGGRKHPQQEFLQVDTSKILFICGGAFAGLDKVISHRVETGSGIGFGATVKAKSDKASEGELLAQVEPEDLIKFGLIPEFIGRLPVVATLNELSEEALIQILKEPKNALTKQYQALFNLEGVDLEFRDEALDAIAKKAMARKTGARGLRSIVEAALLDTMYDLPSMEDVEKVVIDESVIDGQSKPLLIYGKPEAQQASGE
Chain of ClpXP (P0A6G7 15-207): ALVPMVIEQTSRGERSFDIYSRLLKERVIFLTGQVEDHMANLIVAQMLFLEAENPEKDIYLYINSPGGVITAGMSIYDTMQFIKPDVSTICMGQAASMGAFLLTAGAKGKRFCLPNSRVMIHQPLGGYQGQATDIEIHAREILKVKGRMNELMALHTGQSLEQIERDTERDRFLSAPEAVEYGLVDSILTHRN
Chain of MinD (E. coli) (P0AEZ3 whole entry): as the sequence (P0AEZ3 whole entry) above

ClpXP (from UniProt P0A6H1 1-424; P0A6G7 15-207) (complex)
loss of full-length MinD (SDS-PAGE, Coomassie) after 3 h with MinD (6 μM), ClpX (1.0 μM), ClpP (1.2 μM) and ATP; no change when ATP or ClpP was omitted (MinD (E. coli) [1]): 45.9%
degradation of MinD (6 μM) by ClpX (0.75 μM), ClpP (0.9 μM) with ATP, SDS-PAGE and densitometry over time (MinD (E. coli) [2]): 50%
rate of degradation of fluorescent MinD (fluorescent peptides released), MinD 0-16 μM, ClpXP 0.8 μM, ATP 8 mM; rate at the plateau (FL-MinD (E. coli)): 0.08 min⁻¹
